Series [1] has as its system CCR-5 ZFN (AAACTGCAAAAG) (synthetic). In words: cell_activity. The following applies: K562, with p31.
For series [2], the system named is ZFP-FokI 10-residue ZC linker (synthetic). In words: cleavage_in_vitro.
The test system of series [3] is ZFP-FokI 2-residue ZC linker (synthetic). Nature of the series: cleavage_in_vitro.
For series [4], the system named is ZFP-FokI 4-residue ZC linker (synthetic). In words: cleavage_in_vitro.
Series [5] concerns 296S ZFP-FokI E490K E490K (FokI numbering) (synthetic). Nature of the series: cell_activity. The following applies: with 287 Q486E; 0.01 alone.
Series [6] deals with 296S ZFP-FokI (cells) (synthetic). In words: cell_activity. The settings on record: with 287; 0.6 alone, 0.01 donor only.
In series [7] the test system is CCR-5 ZFN (GATGAGGATGAC) (synthetic). Nature of the series: cell_activity. The settings on record: K562, with p32.
Series [8] has as its system 287A ZFP-FokI Q486E Q486E (FokI numbering) (synthetic). In words: cell_activity. The settings on record: with 296 E490K; 0.0 alone.
The subject of series [9] is 287A ZFP-FokI (cells) (synthetic). Nature of the series: cell_activity. The settings on record: with 296; 0.16 alone, 0.01 donor only.

Like-named read-outs stand apart in the source and are kept apart here.

Regarding “AAACTGCAAAAG (double strand) [CCR-5 site 2]”, the activity (% targeted insertion) in series [1] came to 1. “CTAGCATTATCCGAGTTACACAACTCGGATAATGCTAG (double strand) [4 bp separation]”: the activity in series [2] was 4 % cleaved; in series [3], 74 % cleaved; in series [4] (Mg, Zn, 37 C) it was 74 % cleaved. For “CTAGCATTATCCGAGTTCAACCACCAACCACACCAACACAACTCGGATAATGCTAG (double strand) [22 bp separation]”, the activity in [4] was 5 % cleaved. The same measure, in the same setting: to “CTAGCATTATCCGAGTTCAACCACCAACCACACCAACACCACCAACTCGGATAATGCTAG (double strand) [26 bp separation]” belongs 35 % cleaved; to “CTAGCATTATCCGAGTTCAACCACCAACCACACCAACTCGGATAATGCTAG (double strand) [17 bp separation]”, 77 % cleaved; to “CTAGCATTATCCGAGTTCACACAACTCGGATAATGCTAG (double strand) [5 bp separation]”, 92 % cleaved. For “CTAGCATTATCCGAGTTCACACACAACTCGGATAATGCTAG (double strand) [7 bp separation]”, the activity in series [4] was found to be 80 % cleaved.

In turn, “CTAGCATTATCCGAGTTCACACACACAACTCGGATAATGCTAG (double strand) [9 bp separation]” returned an activity in series [4] of 23 % cleaved.

As for “CTAGCATTATCCGAGTTCACCACACAACTCGGATAATGCTAG (double strand) [8 bp separation]”, the activity in series [2] was found to be 63 % cleaved; in [4] it was 8 % cleaved.

On to “CTAGCATTATCCGAGTTCACCACCAACACAACTCGGATAATGCTAG (double strand) [12 bp separation]”, for which the activity in series [4] is 22 % cleaved. Consider “CTAGCATTATCCGAGTTCACCACCAACCACACAACTCGGATAATGCTAG (double strand) [15 bp separation]”, for which the activity stood at 88 % cleaved in series [2] and 97 % cleaved in series [4]. For the sequence “CTAGCATTATCCGAGTTCACCACCAACCACACCAACTCGGATAATGCTAG (double strand) [16 bp separation]”, the results for the activity in series [3] and in series [4] were 59 % cleaved and 100 % cleaved, respectively.

For “CTAGGCATTATCCGAGTTCACCACAACTCGGATAATGACTAG (double strand) [6 bp separation]”, the activity in [2] came out at 76 % cleaved; in [3], 78 % cleaved; in [4], 95 % cleaved.

GAAGCAGCA (double strand) [296S site]: the activity (% corrected cells) in series [5] came out at 0.62; in [6] it was 1.2. Consider “GATGAGGATGAC (double strand) [CCR-5 site 1]”, for which the activity (% targeted insertion) in series [7] was 1.

GGGGTAGCGG (double strand) [287A site]: the activity (% corrected cells) in series [8] was 0.62; in [9] it was 1.2.

These data come from patent US20090258363.
